The text below walks through data of IntAct's records for PubMed 25170080.

B1: Protein Nef (Human immunodeficiency virus type 1 group M subtype B (isolate HXB2) (HIV-1)), P04601 (parent)
chain: MGGKWSKSSVIGWPTVRERMRRAEPAADRVGAASRDLEKHGAITSSNTAATNAACAWLEAQEEEEVGFPVTPQVPLRPMTYKAAVDLSHFLKEKGGLEGLIHSQRRQDILDLWIYHTQGYFPDWQNYTPGPGVRYPLTFGWCYKLVPVEPDKIEEANKGENTSLLHPVSLHGMDDPEREVLEWRFDSRLAFHHVARELHPEYFKNC
partner: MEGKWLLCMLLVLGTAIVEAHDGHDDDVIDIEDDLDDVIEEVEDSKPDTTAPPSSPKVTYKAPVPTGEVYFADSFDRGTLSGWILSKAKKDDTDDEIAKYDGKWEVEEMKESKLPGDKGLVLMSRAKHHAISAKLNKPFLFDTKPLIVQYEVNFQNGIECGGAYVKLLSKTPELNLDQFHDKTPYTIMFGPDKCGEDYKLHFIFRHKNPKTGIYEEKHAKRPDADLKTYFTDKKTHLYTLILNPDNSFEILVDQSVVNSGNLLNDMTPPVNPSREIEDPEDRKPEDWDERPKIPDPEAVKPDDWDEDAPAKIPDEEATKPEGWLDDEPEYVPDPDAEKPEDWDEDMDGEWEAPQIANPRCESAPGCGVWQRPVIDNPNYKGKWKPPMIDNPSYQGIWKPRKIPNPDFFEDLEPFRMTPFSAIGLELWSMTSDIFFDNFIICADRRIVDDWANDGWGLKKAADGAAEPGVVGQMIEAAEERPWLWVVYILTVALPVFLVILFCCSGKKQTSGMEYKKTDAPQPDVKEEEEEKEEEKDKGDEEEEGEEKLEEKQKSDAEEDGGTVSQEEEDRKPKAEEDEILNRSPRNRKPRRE

In this test the parent is B1. The following applies: with calx_human CANX.
Take G2A: the “effect of a mutation on the interaction” value was “disrupting interaction strength”.
